Measurements as given in article PMC10090120, “Cryo-EM structures of mitochondrial ABC transporter ABCB10 in apo and biliverdin-bound form” (Nature Communications, 2023).

Molecular target: the molecule itself
Assay: cryo-EM structure; ABCB10 E659Q at ~4 mg/mL in 50 mM HEPES pH 7.5, 150 mM NaCl, 0.005% GDN, 0.0005% CHS, incubated with 1 mM biliverdin for 30 min and vitrified; BV-free (apo) and BV-bound maps from a single data set; C2 symmetry

B1: human ABCB10 (residues A152-A738) E659Q mutant (domain or fragment, UniProt Q9NRK6 152-738, looked up)
chain: AGLPEARKLLGLAYPERRRLAAAVGFLTMSSVISMSAPFFLGKIIDVIYTNPTVDYSDNLTRLCLGLSAVFLCGAAANAIRVYLMQTSGQRIVNRLRTSLFSSILRQEVAFFDKTRTGELINRLSSDTALLGRSVTENLSDGLRAGAQASVGISMMFFVSPNLATFVLSVVPPVSIIAVIYGRYLRKLTKVTQDSLAQATQLAEERIGNVRTVRAFGKEMTEIEKYASKVDHVMQLARKEAFARAGFFGATGLSGNLIVLSVLYKGGLLMGSAHMTVGELSSFLMYAFWVGISIGGLSSFYSELMKGLGAGGRLWELLEREPKLPFNEGVILNEKSFQGALEFKNVHFAYPARPEVPIFQDFSLSIPSGSVTALVGPSGSGKSTVLSLLLRLYDPASGTISLDGHDIRQLNPVWLRSKIGTVSQEPILFSCSIAENIAYGADDPSSVTAEEIQRVAEVANAVAFIRNFPQGFNTVVGEKGVLLSGGQKQRIAIARALLKNPKILLLDQATSALDAENEYLVQEALDRLMDGRTVLVIAHRLSTIKNANMVAVLDQGKITEYGKHEELLSKPNGIYRKLMNKQSFISA
notes: E659Q in the Walker-B motif; The vector adds a C-terminal TEV protease site before the FLAG and 10xHis tags; no cleavage is described; The model of ABCB10-apo covers residues 156-724 (528-532 missing), that of ABCB10-BV residues 154-724 (629-631 missing); also called ABCB10 E659Q; ABCB10-apo
  stoichiometry N: 2
